Values belong to the molecule of their own block, whether it stands above or below them.
What was measured:
[1] = target: Halo-PAFR Cys mutant 1.33; assay: cysteine cross-linking with CuP, SDS-PAGE blot quantification of cell surface Halo-PAFR; settings: parent: est. 5, read off a plot
[2] = target: Halo-PAFR Cys mutant 1.35; assay: as above; settings: parent: est. 5, read off a plot
[3] = target: Halo-PAFR Cys mutant 1.38; assay: as above; settings: parent: est. 5, read off a plot
[4] = target: Halo-PAFR Cys mutant 1.39; assay: as above; settings: parent: est. 5, read off a plot
[5] = target: Halo-PAFR Cys mutant 1.41; assay: as above; settings: parent: est. 5, read off a plot
[6] = target: Halo-PAFR Cys mutant 2.59; assay: as above; settings: parent: est. 5, read off a plot
[7] = target: Halo-PAFR Cys mutant 2.63; assay: as above; settings: parent: est. 5, read off a plot
[8] = target: Halo-PAFR Cys mutant 3.23; assay: as above; settings: parent: est. 5, read off a plot
[9] = target: Halo-PAFR Cys mutant 3.27; assay: as above; settings: parent: est. 5, read off a plot
[10] = target: Halo-PAFR Cys mutant 4.47; assay: as above; settings: parent: est. 5, read off a plot
[11] = target: Halo-PAFR Cys mutant 4.48; assay: as above; settings: parent: est. 5, read off a plot
[12] = target: Halo-PAFR Cys mutant 4.51; assay: as above; settings: parent: est. 5, read off a plot
[13] = target: Halo-PAFR Cys mutant 4.53; assay: as above; settings: parent: est. 5, read off a plot
[14] = target: Halo-PAFR Cys mutant 4.54; assay: as above; settings: parent: est. 5, read off a plot
[15] = target: Halo-PAFR Cys mutant 4.56; assay: as above; settings: parent: est. 5, read off a plot
[16] = target: Halo-PAFR Cys mutant 4.57; assay: as above; settings: parent: est. 5, read off a plot
[17] = target: Halo-PAFR Cys mutant 4.58; assay: as above; settings: parent: est. 5, read off a plot
[18] = target: Halo-PAFR Cys mutant 4.60; assay: as above; settings: parent: est. 5, read off a plot
[19] = target: Halo-PAFR Cys mutant 4.61; assay: as above; settings: parent: est. 5, read off a plot
[20] = target: Halo-PAFR Cys mutant 4.64; assay: as above; settings: parent: est. 5, read off a plot
[21] = target: Halo-PAFR Cys mutant 6.49; assay: as above; settings: parent: est. 5, read off a plot
[22] = target: Halo-PAFR Cys mutant 6.51; assay: as above; settings: parent: est. 5, read off a plot
[23] = target: Halo-PAFR Cys mutant 6.53; assay: as above; settings: parent: est. 5, read off a plot
[24] = target: Halo-PAFR Cys mutant 6.54; assay: as above; settings: parent: est. 5, read off a plot
[25] = target: Halo-PAFR Cys mutant 6.56; assay: as above; settings: parent: est. 5, read off a plot
[26] = target: Halo-PAFR Cys mutant 7.33; assay: as above; settings: parent: est. 5, read off a plot
[27] = target: Halo-PAFR Cys mutant 7.35; assay: as above; settings: parent: est. 5, read off a plot
[28] = target: Halo-PAFR Cys mutant 7.37; assay: as above; settings: parent: est. 5, read off a plot
[29] = target: Halo-PAFR Cys mutant 7.38; assay: as above; settings: parent: est. 5, read off a plot
[30] = target: Halo-PAFR Y151C^4.59-I154C^4.62 (human, UniProt P25105 1-342, Y151C^4.59 | I154C^4.62, Halo-tag covalently labelled with HaloTag Alexa Fluor 660 (blots) or HaloTag Alexa Fluor 488 (imaging)); assay: cell-based or functional assay
Chain of Halo-PAFR Y151C^4.59-I154C^4.62 (P25105 whole entry Y151C/I154C): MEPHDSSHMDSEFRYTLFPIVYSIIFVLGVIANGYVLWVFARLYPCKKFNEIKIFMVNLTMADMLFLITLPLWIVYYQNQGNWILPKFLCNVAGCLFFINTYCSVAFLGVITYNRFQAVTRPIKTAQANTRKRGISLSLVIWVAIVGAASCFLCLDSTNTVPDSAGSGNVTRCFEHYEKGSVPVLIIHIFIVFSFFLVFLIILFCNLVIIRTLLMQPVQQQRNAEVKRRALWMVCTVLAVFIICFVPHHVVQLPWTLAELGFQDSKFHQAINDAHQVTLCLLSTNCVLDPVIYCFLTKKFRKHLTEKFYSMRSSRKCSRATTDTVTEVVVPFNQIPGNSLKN

[31] = target: Halo-PAFR E178K (natural genetic variant) (human, UniProt P25105 1-342, E178K, Halo-tag covalently labelled with HaloTag Alexa Fluor 488); assay: cell-based or functional assay
Chain of Halo-PAFR E178K (natural genetic variant) (P25105 whole entry E178K): as the sequence (P25105 whole entry Y151C/I154C) above, with C151Y, C154I, E178K counted along it

Molecule: Halo-tagged wild-type human platelet-activating factor receptor (from UniProt P25105) 1.33
other: change of dimer cross-linking [1]: 14%

Molecule: Halo-tagged wild-type human platelet-activating factor receptor (from UniProt P25105) 1.39
other: change of dimer cross-linking [4]: 13%

Molecule: Halo-tagged wild-type human platelet-activating factor receptor (from UniProt P25105) 1.41
other: change of dimer cross-linking [5]: 20%

Molecule: Halo-tagged wild-type human platelet-activating factor receptor (from UniProt P25105) 2.59
other: change of dimer cross-linking [6]: 21%

Molecule: Halo-tagged wild-type human platelet-activating factor receptor (from UniProt P25105) 2.63
other: change of dimer cross-linking [7]: 14%

Molecule: Halo-tagged wild-type human platelet-activating factor receptor (from UniProt P25105) 3.27
other: change of dimer cross-linking [9]: 9%

Molecule: Halo-tagged wild-type human platelet-activating factor receptor (from UniProt P25105) 4.51
other: change of dimer cross-linking [12]: 19%

Molecule: Halo-tagged wild-type human platelet-activating factor receptor (from UniProt P25105) 4.54
other: change of dimer cross-linking [14]: 20%

Molecule: Halo-tagged wild-type human platelet-activating factor receptor (from UniProt P25105) 4.56
other: change of dimer cross-linking [15]: 22%

Molecule: Halo-tagged wild-type human platelet-activating factor receptor (from UniProt P25105) 4.61
other: change of dimer cross-linking [19]: 18%

Molecule: Halo-tagged wild-type human platelet-activating factor receptor (from UniProt P25105) 4.64
other: change of dimer cross-linking [20]: 11%

Molecule: Halo-tagged wild-type human platelet-activating factor receptor (from UniProt P25105) 6.51
other: change of dimer cross-linking [22]: 6%

Molecule: Halo-tagged wild-type human platelet-activating factor receptor (from UniProt P25105) 6.53
other: change of dimer cross-linking [23]: 10%

Molecule: Halo-tagged wild-type human platelet-activating factor receptor (from UniProt P25105) 6.54
other: change of dimer cross-linking [24]: 8%

Molecule: Halo-tagged wild-type human platelet-activating factor receptor (from UniProt P25105) 7.35
other: change of dimer cross-linking [27]: 16%

B1: Human β-arrestin1 tagged with Rluc (natural protein, UniProt P49407 1-418, looked up)
chain: MGDKGTRVFKKASPNGKLTVYLGKRDFVDHIDLVDPVDGVVLVDPEYLKERRVYVTLTCAFRYGREDLDVLGLTFRKDLFVANVQSFPPAPEDKKPLTRLQERLIKKLGEHAYPFTFEIPPNLPCSVTLQPGPEDTGKACGVDYEVKAFCAENLEEKIHKRNSVRLVIRKVQYAPERPGPQPTAETTRQFLMSDKPLHLEASLDKEIYYHGEPISVNVHVTNNTNKTVKKIKISVRQYADICLFNTAQYKCPVAMEEADDTVAPSSTFCKVYTLTPFLANNREKRGLALDGKLKHEDTNLASSTLLREGANREILGIIVSYKVKVKLVVSRGGLLGDLASSDVAVELPFTLMHPKPKEEPPHREVPENETPVDTNLIELDTNDDDIVFEDFARQRLKGMKDDKEEEEDGTGSPQLNNR
maximal efficacy of βarr1 recruitment, normalized to WT [30]: ~60 % of WT
maximal efficacy of βarr1 recruitment, normalized to WT [31]: ~83 % of WT

More lines, now with the values ahead:

other: change of dimer cross-linking [2]: 18%
Molecule: Halo-tagged wild-type human platelet-activating factor receptor (from UniProt P25105) 1.35

other: change of dimer cross-linking [3]: 16%
Molecule: Halo-tagged wild-type human platelet-activating factor receptor (from UniProt P25105) 1.38

other: change of dimer cross-linking [8]: 8%
Molecule: Halo-tagged wild-type human platelet-activating factor receptor (from UniProt P25105) 3.23

other: change of dimer cross-linking [10]: 13%
Molecule: Halo-tagged wild-type human platelet-activating factor receptor (from UniProt P25105) 4.47

other: change of dimer cross-linking [11]: 14%
Molecule: Halo-tagged wild-type human platelet-activating factor receptor (from UniProt P25105) 4.48

other: change of dimer cross-linking [13]: 20%
Molecule: Halo-tagged wild-type human platelet-activating factor receptor (from UniProt P25105) 4.53

other: change of dimer cross-linking [16]: 15%
Molecule: Halo-tagged wild-type human platelet-activating factor receptor (from UniProt P25105) 4.57

other: change of dimer cross-linking [17]: 22%
Molecule: Halo-tagged wild-type human platelet-activating factor receptor (from UniProt P25105) 4.58

other: change of dimer cross-linking [18]: 20%
Molecule: Halo-tagged wild-type human platelet-activating factor receptor (from UniProt P25105) 4.60

other: change of dimer cross-linking [21]: 15%
Molecule: Halo-tagged wild-type human platelet-activating factor receptor (from UniProt P25105) 6.49

other: change of dimer cross-linking [25]: 9%
Molecule: Halo-tagged wild-type human platelet-activating factor receptor (from UniProt P25105) 6.56

other: change of dimer cross-linking [26]: 15%
Molecule: Halo-tagged wild-type human platelet-activating factor receptor (from UniProt P25105) 7.33

other: change of dimer cross-linking [28]: 19%
Molecule: Halo-tagged wild-type human platelet-activating factor receptor (from UniProt P25105) 7.37

other: change of dimer cross-linking [29]: 15%
Molecule: Halo-tagged wild-type human platelet-activating factor receptor (from UniProt P25105) 7.38

Source: article PMC9606269, “Biased signaling due to oligomerization of the G protein-coupled platelet-activating factor receptor” (Nature Communications, 2022)
